One test deals with T1, Gpr158 (Mus musculus, UniProt Q8C419).
T1 sequence (Q8C419 25-1200): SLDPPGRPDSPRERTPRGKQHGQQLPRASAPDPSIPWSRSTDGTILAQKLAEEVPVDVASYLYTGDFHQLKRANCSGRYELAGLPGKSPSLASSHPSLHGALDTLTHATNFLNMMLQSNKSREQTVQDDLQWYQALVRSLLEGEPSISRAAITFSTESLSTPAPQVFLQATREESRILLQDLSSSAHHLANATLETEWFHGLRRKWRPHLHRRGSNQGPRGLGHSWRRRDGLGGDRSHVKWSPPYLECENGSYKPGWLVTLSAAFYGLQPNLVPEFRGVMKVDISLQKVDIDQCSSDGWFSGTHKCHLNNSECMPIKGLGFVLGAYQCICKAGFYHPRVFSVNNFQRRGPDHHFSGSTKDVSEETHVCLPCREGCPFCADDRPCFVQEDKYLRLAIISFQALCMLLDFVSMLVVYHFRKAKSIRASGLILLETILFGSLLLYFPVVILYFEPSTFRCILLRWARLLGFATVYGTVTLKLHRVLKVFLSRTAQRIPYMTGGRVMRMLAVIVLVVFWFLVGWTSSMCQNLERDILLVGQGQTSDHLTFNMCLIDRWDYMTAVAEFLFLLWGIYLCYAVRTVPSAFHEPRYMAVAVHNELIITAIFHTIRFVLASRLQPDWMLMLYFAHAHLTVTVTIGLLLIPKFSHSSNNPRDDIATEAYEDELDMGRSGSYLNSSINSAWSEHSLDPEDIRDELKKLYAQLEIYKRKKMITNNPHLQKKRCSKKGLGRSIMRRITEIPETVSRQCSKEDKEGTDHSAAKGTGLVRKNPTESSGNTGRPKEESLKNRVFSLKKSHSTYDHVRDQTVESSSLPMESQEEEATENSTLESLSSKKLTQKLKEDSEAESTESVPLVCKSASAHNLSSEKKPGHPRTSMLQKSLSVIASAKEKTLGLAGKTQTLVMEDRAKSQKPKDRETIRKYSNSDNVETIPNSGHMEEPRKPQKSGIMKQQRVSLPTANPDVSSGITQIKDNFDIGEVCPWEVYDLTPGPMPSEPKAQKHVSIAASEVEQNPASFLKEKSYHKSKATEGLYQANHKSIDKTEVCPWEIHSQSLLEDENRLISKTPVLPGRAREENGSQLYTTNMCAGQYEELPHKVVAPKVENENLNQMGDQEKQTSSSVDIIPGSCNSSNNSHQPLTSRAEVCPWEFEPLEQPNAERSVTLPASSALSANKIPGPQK
Put plainly: Hippocampal lentiviral sh-Gpr158 knockdown followed by osteocalcin injection, NOR and CFC. It is filed as in vivo. More on the design: from tissue; host or cells: anterior hippocampus of living 3-month-old C57BL/6J male mice. Here is the method: Mice were anesthetized with intra-peritoneal injection of […] (Rompun 2%; Bayer) and placed in a stereotaxic frame (900SL-KOPF). Ophthalmic eye ointment was applied to the cornea to prevent desiccation during surgery. The area around the incision was trimmed and Vetedine solution (Vetoquinol) was appplied. Lentiviruses expressing shRNA targeting Gpr158 or non-effective scramble shRNA in pGFP-C-shLentiVector were injected bilaterally into the anterior hippocampi using the following coordinates: (from bregma) anterior=−2.0 mm, lateral=+/−1.4 mm and height=-1.33 mm. Coordinates were determined using the Mouse Brain in Stereotaxic Coordinates (Paxinos and Franklin, 2008). Two weeks later, osteocalcin (10 ng) or NaCl were injected using the same coordinates. […]
Novel object recognition test (NOR): The NOR paradigm assesses the rodent's ability to recognize a novel object in the environment. […] These objects elicit equal levels of exploration as determined in pilot experiments (Denny, C. A., et al., 2012, Hippocampus 22:1188-1201; Oury, F., et al., 2013, Cell 155:228-241). […] Preference for the novel object is assessed based on the fraction of time that a mouse spends exploring the novel object compared to the familiar object. Exploration is scored from video recordings of each exposure and recorded using the Stopwatch program. […]

The next test deals with 16 month old WT mice. Put plainly: ICV delivery in aged WT mice, modified Novel Object Recognition test. The test is classed as in vivo, mouse. The settings on record: ICV 10 ng/hr, one month. Here is the method: ICV pumps delivering (10 ng/hr) recombinant uncarboxylated full-length mouse osteocalcin were implanted in 16 month old WT mice. After an infusion period of one month, the mice were subjected to a modified version of the Novel Object Recognition test, to assay memory and hippocampal function. Briefly, mice were given five 5 minute exposures, with 3 minute resting intervals between exposures, to a novel arena containing two objects. During exposures 1-4, mice were habituated to these two objects, which elicited equal amounts of exploration. In the fifth exposure, one of the objects was replaced with a novel object.

For the substance “osteocalcin: Recombinant osteocalcin bacterially produced, cleaved from the GST subunit; completely undercarboxylated at all three sites; full-length mouse osteocalcin (YLGASVPSPDPLEPTREQCELNPACDELSDQYGLKTAYKRIYGITI)”, the “memory performance (NOR)” value with Gpr158 (control (scrambled shRNA) mice, osteocalcin 10 ng in anterior hippocampus) is listed as “enhanced memory performance”. For the same substance, the “contextual fear conditioning (CFC)” value in the test with Gpr158 (sh-control vs sh-Gpr158 mice, osteocalcin 10 ng) is “A similar result was obtained”. Also, in the test with 16 month old WT mice, the “discrimination between novel and constant objects” value is “able to discriminate between the novel and constant objects”; the “time exploring the novel object (Novel Object Recognition)” value is on record as “spent less time exploring the novel object than mice treated with vehicle alone”.
